Reference: publication PMC12022753, “Mechanism of Cas9 inhibition by AcrIIA11”

Assays:
SaCas9 [1] = target: T1, SaCas9 (Staphylococcus aureus, UniProt J7RUA5 1-1053); experiment: single-molecule DNA curtains; settings: EMSA: 20 mM Tris-HCl pH 8, 5% glycerol, 100 mM KCl, 5 mM MgCl2, 1 mM DTT, 37 C, 1 mM NaCl
T1 sequence: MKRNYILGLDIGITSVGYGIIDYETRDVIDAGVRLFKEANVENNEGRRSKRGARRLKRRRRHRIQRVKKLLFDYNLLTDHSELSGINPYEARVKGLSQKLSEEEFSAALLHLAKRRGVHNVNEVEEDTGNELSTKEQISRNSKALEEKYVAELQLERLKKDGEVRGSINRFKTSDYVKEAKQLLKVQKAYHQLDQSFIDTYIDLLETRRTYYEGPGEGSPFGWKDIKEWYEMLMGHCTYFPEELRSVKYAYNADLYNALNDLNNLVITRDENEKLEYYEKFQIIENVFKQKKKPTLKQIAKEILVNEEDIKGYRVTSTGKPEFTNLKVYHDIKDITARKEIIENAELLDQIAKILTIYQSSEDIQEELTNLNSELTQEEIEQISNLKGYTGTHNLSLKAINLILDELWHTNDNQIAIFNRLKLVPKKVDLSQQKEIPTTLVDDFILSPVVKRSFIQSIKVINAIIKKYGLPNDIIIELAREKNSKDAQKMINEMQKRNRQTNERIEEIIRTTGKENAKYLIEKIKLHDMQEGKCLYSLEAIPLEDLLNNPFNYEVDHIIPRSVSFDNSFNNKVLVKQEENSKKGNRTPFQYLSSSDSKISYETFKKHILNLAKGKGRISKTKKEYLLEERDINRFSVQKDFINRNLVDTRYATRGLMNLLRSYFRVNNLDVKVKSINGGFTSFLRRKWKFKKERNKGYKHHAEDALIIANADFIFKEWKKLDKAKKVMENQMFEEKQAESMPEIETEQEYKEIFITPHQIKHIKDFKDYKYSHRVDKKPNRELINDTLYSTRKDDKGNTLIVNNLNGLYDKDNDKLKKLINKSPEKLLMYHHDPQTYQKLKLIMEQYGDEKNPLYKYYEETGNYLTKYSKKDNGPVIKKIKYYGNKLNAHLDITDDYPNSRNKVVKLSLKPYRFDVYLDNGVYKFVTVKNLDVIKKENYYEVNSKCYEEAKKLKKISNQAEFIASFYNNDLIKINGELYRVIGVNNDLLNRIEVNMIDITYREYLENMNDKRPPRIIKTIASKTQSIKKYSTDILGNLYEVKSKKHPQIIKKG

[2] = target: SaCas9;AcrIIA11 (Staphylococcus aureus;) (UniProt J7RUA5); experiment: single-molecule DNA curtains; settings: 100 mM KCl, 5 mM MgCl2, 1 mM DTT, 37 C, sgRNA EMSA: 20 mM Tris-HCl pH 8, 5% glycerol, 1 mM NaCl
[3] = target: dSaCas9 (nuclease-dead SaCas9);AcrIIA11 D10A;N580A (Staphylococcus aureus;) (UniProt J7RUA5); experiment: EMSA; settings: 100 mM KCl, 5 mM MgCl2, 1 mM DTT, 37 C, sgRNA EMSA: 20 mM Tris-HCl pH 8, 5% glycerol, 1 mM NaCl
SaCas9 [4] = target: T1, SaCas9; experiment: EMSA; RNP preformed with 490 nM SaCas9; EMSA: 20 mM Tris-HCl pH 8, 5% glycerol, 100 mM KCl, 5 mM MgCl2, 1 mM DTT, 37 C; sgRNA EMSA: 20 mM Tris-HCl pH 8, 5% glycerol, 1 mM NaCl, 1 mM DTT, 37 C; curtains (dSaCas9): 40 mM Tris-HCl pH 8, 2 mM MgCl2, 100 mM NaCl, 1 mM DTT, 0.2 mg/ml BSA; settings: protein: recombinant, tags: N-terminal 3xFLAG, 6xHis-TwinStrep-SUMO removed, label: 5'-32P
AcrIIA11-6xHis = experiment: negative-stain electron microscopy; SaCas9 RNP mixed with ~2-fold excess of AcrIIA11-6xHis, passed over Superose 6 (peak eluted at a higher molecular weight than SaCas9 RNP); 200 mM NaCl, 25 mM HEPES pH 7.5, 5% glycerol, 2 mM DTT; low-resolution 3D reconstruction from 16 761 particles with the SaCas9 RNP crystal structure docked

48.5 kb DNA (lambda) with 29.4 kb-target sgRNA
binding signal (% of molecules at target within 90 s) (SaCas9 [1]; sgRNA EMSA: 20 mM Tris-HCl pH 8, 5% glycerol): 43 | binding signal (% of molecules at target within 90 s) ([2]; EMSA: 20 mM Tris-HCl pH 8, 5% glycerol): 12

AAGAACGCCTCGCACACTCTTTTGACTTGATCGGCACGTAAGAGGTTCCAACTTTCACCATAATGAAATAAGATCACTACTTGGGTTATTTTTTGAGTTATCGAGATTTTCAGACTCTGTTATTCGGCGGTT (double strand) [SMART PCR DNA with noncomplementary sgRNA]
binding signal ([3]; 2 uM AcrIIA11, noncomplementary, EMSA: 20 mM Tris-HCl pH 8, 5% glycerol): 32 % DNA bound

TTTGGGTATTGGGTATTGGGTTTTGGGTTTGGGTTATTTT (double strand) [5x strong PAM DNA (KD201/KD202), nontarget]
binding signal ([3]; 25 nM dSaCas9 and sgRNA, 5 uM AcrIIA11, EMSA: 20 mM Tris-HCl pH 8, 5% glycerol): 90 % DNA bound

lambda DNA with scrambled sgRNA (no target)
binding signal (s (half-dissociation lifetime)) (SaCas9 [1]; scrambled sgRNA): 61 | binding signal ([2]; scrambled sgRNA, AcrIIA11, EMSA: 20 mM Tris-HCl pH 8, 5% glycerol): 98 s (lifetime)

B1: SaCas9 SMART target sgRNA (structured_RNA)
RNA: UAAUGAAAUAAGAUCACUACGUUUUAGUACUCUGGAAACAGAAUCUACUAAAACAAGGCAAAAUGCCGUGUUUAUCUCGUCAACUUGUUGGCGAGAU
binding result (SaCas9 [4]): binds

B2: SaCas9 RNP from TS-SUMO-SaCas9-sgRNA (enzyme)
chain: T1 sequence
stoichiometry N (AcrIIA11-6xHis): 1
